“And” between values parts separate entries of the source, which are not always exact repeats. Equal entries are not always repeated.
What was measured:
[1] = biological target: recombinant human PCSK9-His protein (Immunogen A) (human) (UniProt Q8NBP7); assay: SPR, Biacore T200; antibody captured by anti-human Fc
[2] = biological target: recombinant human PCSK9-His protein (Immunogen A) (human) (UniProt Q8NBP7); assay: ELISA of PCSK9 binding to LDLR ECD; antibody 200 nM
[3] = biological target: recombinant cyno monkey PCSK9 protein (cyno monkey); assay: ELISA; antibody 6.67 nM
[4] = biological target: recombinant human PCSK9-His protein (Immunogen A) (human) (UniProt Q8NBP7); assay: ELISA of PCSK9 binding to LDLR ECD; antibody 40 nM
[5] = biological target: recombinant cyno monkey PCSK9 protein (cyno monkey); assay: ELISA; antibody 0.00067 nM
[6] = biological target: recombinant cyno monkey PCSK9 protein (cyno monkey); assay: ELISA; antibody 0 nM
[7] = biological target: recombinant human PCSK9-His protein (Immunogen A) (human) (UniProt Q8NBP7); assay: ELISA; antibody 66.67 nM
[8] = biological target: recombinant cyno monkey PCSK9 protein (cyno monkey); assay: ELISA; antibody 66.67 nM
[9] = biological target: recombinant human PCSK9-His protein (Immunogen A) (human) (UniProt Q8NBP7); assay: ELISA of PCSK9 binding to LDLR ECD; antibody 8 nM
[10] = biological target: recombinant human PCSK9^D374Y protein (human) (UniProt Q8NBP7); assay: ELISA of PCSK9^D374Y binding to LDLR ECD; antibody 0.06 nM
[11] = biological target: recombinant cyno monkey PCSK9 protein (cyno monkey); assay: ELISA; antibody 0.67 nM
[12] = biological target: recombinant human PCSK9-His protein (Immunogen A) (human) (UniProt Q8NBP7); assay: ELISA of PCSK9 binding to LDLR ECD; antibody 0 nM
[13] = biological target: recombinant cyno monkey PCSK9 protein (cyno monkey); assay: ELISA; antibody 0.000067 nM
[14] = biological target: recombinant cyno monkey PCSK9 protein (cyno monkey); assay: ELISA; antibody 0 nM; remark: listed apart in the source
[15] = biological target: recombinant human PCSK9 protein, His-tagged (Immunogen A, hPCSK9-His) (human) (UniProt Q8NBP7); assay: ELISA, biotin-hPCSK9-His on streptavidin plate; antibody 0.067 nM
[16] = biological target: recombinant cyno monkey PCSK9 protein (cyno monkey); assay: ELISA, biotin-cyno PCSK9 on streptavidin plate; antibody 6.67 nM
[17] = biological target: recombinant human PCSK9 protein, His-tagged (Immunogen A, hPCSK9-His) (human) (UniProt Q8NBP7); assay: blocking ELISA, biotin-hPCSK9-His on coated LDLR ECD-His; antibody 0.06 nM
[18] = biological target: recombinant human PCSK9 protein, His-tagged (Immunogen A, hPCSK9-His) (human) (UniProt Q8NBP7); assay: blocking ELISA, biotin-hPCSK9-His on coated LDLR ECD-His; antibody 8 nM
[19] = biological target: recombinant human PCSK9 protein, His-tagged (Immunogen A, hPCSK9-His) (human) (UniProt Q8NBP7); assay: blocking ELISA, biotin-hPCSK9-His on coated LDLR ECD-His; antibody 1.6 nM
[20] = biological target: recombinant human PCSK9 protein, His-tagged (Immunogen A, hPCSK9-His) (human) (UniProt Q8NBP7); assay: ELISA, biotin-hPCSK9-His on streptavidin plate; antibody 0.00067 nM
[21] = biological target: recombinant cyno monkey PCSK9 protein (cyno monkey); assay: ELISA, biotin-cyno PCSK9 on streptavidin plate; antibody 0.0067 nM
[22] = biological target: recombinant human PCSK9 protein, His-tagged (Immunogen A, hPCSK9-His) (human) (UniProt Q8NBP7); assay: blocking ELISA, biotin-hPCSK9-His on coated LDLR ECD-His; antibody 40 nM
[23] = biological target: recombinant human PCSK9 protein, His-tagged (Immunogen A, hPCSK9-His) (human) (UniProt Q8NBP7); assay: ELISA, biotin-hPCSK9-His on streptavidin plate; antibody 0 nM (blank)
[24] = biological target: recombinant cyno monkey PCSK9 protein (cyno monkey); assay: ELISA, biotin-cyno PCSK9 on streptavidin plate; antibody 66.67 nM
[25] = biological target: recombinant human PCSK9 protein, His-tagged (Immunogen A, hPCSK9-His) (human) (UniProt Q8NBP7); assay: ELISA, biotin-hPCSK9-His on streptavidin plate; antibody 0.0067 nM
[26] = biological target: recombinant cyno monkey PCSK9 protein (cyno monkey); assay: ELISA, biotin-cyno PCSK9 on streptavidin plate; antibody 0.67 nM
[27] = biological target: recombinant human PCSK9 protein, His-tagged (Immunogen A, hPCSK9-His) (human) (UniProt Q8NBP7); assay: blocking ELISA, biotin-hPCSK9-His on coated LDLR ECD-His; antibody 0.32 nM
[28] = biological target: recombinant human PCSK9 protein, His-tagged (Immunogen A, hPCSK9-His) (human) (UniProt Q8NBP7); assay: ELISA, biotin-hPCSK9-His on streptavidin plate; antibody 0.67 nM
[29] = biological target: recombinant human PCSK9 protein, His-tagged (Immunogen A, hPCSK9-His) (human) (UniProt Q8NBP7); assay: blocking ELISA, biotin-hPCSK9-His on coated LDLR ECD-His; antibody 200 nM
[30] = biological target: recombinant human PCSK9 protein, His-tagged (Immunogen A, hPCSK9-His) (human) (UniProt Q8NBP7); assay: ELISA, biotin-hPCSK9-His on streptavidin plate; antibody 66.67 nM
[31] = biological target: recombinant cyno monkey PCSK9 protein (cyno monkey); assay: ELISA, biotin-cyno PCSK9 on streptavidin plate; antibody 0.067 nM
[32] = biological target: recombinant human PCSK9 protein, His-tagged (Immunogen A, hPCSK9-His) (human) (UniProt Q8NBP7); assay: ELISA, biotin-hPCSK9-His on streptavidin plate; antibody 6.67 nM
[33] = biological target: recombinant cyno monkey PCSK9 protein (cyno monkey); assay: ELISA, biotin-cyno PCSK9 on streptavidin plate; antibody 0.00067 nM
[34] = biological target: recombinant human PCSK9 protein, His-tagged (Immunogen A, hPCSK9-His) (human) (UniProt Q8NBP7); assay: ELISA, biotin-hPCSK9-His on streptavidin plate; antibody 0.000067 nM
[35] = biological target: recombinant human PCSK9 protein, His-tagged (Immunogen A, hPCSK9-His) (human) (UniProt Q8NBP7); assay: blocking ELISA, biotin-hPCSK9-His on coated LDLR ECD-His; antibody 0.01 nM
[36] = biological target: recombinant cyno monkey PCSK9 protein (cyno monkey); assay: ELISA, biotin-cyno PCSK9 on streptavidin plate; antibody 0 nM (blank)
[37] = biological target: recombinant cyno monkey PCSK9 protein (cyno monkey); assay: ELISA, biotin-cyno PCSK9 on streptavidin plate; antibody 0.000067 nM

Sequence of recombinant cyno monkey PCSK9 protein (cyno monkey) (A8T666 31-692 limits assumed): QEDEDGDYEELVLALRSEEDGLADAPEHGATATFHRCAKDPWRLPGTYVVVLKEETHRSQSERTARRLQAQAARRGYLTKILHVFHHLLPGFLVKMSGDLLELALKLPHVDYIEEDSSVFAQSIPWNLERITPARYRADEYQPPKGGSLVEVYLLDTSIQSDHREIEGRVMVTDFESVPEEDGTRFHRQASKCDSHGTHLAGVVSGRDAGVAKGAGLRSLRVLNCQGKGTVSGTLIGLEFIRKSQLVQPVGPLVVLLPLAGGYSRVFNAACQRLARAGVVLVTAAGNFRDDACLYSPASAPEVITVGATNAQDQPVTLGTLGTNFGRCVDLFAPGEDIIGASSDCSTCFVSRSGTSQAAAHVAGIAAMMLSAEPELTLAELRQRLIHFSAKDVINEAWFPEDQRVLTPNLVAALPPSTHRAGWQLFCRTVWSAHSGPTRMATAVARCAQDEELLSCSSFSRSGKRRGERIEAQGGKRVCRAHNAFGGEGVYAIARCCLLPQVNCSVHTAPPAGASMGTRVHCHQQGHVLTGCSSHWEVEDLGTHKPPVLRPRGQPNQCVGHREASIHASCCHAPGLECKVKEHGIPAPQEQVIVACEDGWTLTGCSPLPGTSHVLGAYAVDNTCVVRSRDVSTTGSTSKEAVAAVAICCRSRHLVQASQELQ

## Alirocumab, Regeneron (antibody)
[1]
  Kd: 0.394 nM
  koff: 0.000318 s⁻¹
  kon: 806000 M⁻¹ s⁻¹

## Evolocumab, Amgen (antibody)
[1]
  Kd: < 0.122 nM
  koff: 0.000822 s⁻¹
  kon: < 100000 M⁻¹ s⁻¹

## IgG control (human IgG) (antibody)
[2]
  OD450 nm: 1.41 OD450 nm
[3]
  OD450 nm: 0.15 OD450 nm
[4]
  OD450 nm: 1.43 OD450 nm
[5]
  OD450 nm: 0.07 OD450 nm
[6]
  OD450 nm: 0.07 OD450 nm
[7]
  OD450 nm: 0.97 OD450 nm
[8]
  OD450 nm: 0.81 OD450 nm
[9]
  OD450 nm: 1.76 OD450 nm
[10]
  OD450 nm: 1.57 OD450 nm
[11]
  OD450 nm: 0.08 OD450 nm
[12]
  OD450 nm: 2.4 OD450 nm
[13]
  OD450 nm: 0.07 OD450 nm
[14]
  OD450 nm: 0.06 OD450 nm

## IgG control (rat IgG) (antibody)
[15]
  OD450 nm: 0.12 OD450 nm and 0.09 OD450 nm
[16]
  OD450 nm: 0.17 OD450 nm
[17]
  OD450 nm (PCSK9 bound to LDLR): 1.26 OD450 nm and 1.2 OD450 nm
[18]
  OD450 nm (PCSK9 bound to LDLR): 1.02 OD450 nm and 1.07 OD450 nm
[19]
  OD450 nm (PCSK9 bound to LDLR): 1.09 OD450 nm and 1.12 OD450 nm
[20]
  OD450 nm: 0.18 OD450 nm and 0.09 OD450 nm
[21]
  OD450 nm: 0.12 OD450 nm
[22]
  OD450 nm (PCSK9 bound to LDLR): 1.01 OD450 nm and 1.11 OD450 nm
[23]
  OD450 nm: 0.1 OD450 nm
[24]
  OD450 nm: 0.18 OD450 nm
[25]
  OD450 nm: 0.18 OD450 nm and 0.1 OD450 nm
[26]
  OD450 nm: 0.12 OD450 nm
[27]
  OD450 nm (PCSK9 bound to LDLR): 1.2 OD450 nm and 1.13 OD450 nm
[28]
  OD450 nm: 0.09 OD450 nm
[29]
  OD450 nm (PCSK9 bound to LDLR): 1.22 OD450 nm and 1.14 OD450 nm
[30]
  OD450 nm: 0.11 OD450 nm
[31]
  OD450 nm: 0.12 OD450 nm
[32]
  OD450 nm: 0.1 OD450 nm
[33]
  OD450 nm: 0.16 OD450 nm
[34]
  OD450 nm: 0.11 OD450 nm
[35]
  OD450 nm (PCSK9 bound to LDLR): 1.22 OD450 nm and 1.18 OD450 nm
[36]
  OD450 nm: 0.15 OD450 nm
[37]
  OD450 nm: 0.19 OD450 nm

Source: patent US20180355059A1
